# Experimental data as given in US20220135654A1 (GOVERNMENT OF THE UNITED STATES OF AMERICA AS REPRESENTED …, published 2022).
# B1: sdAb clone E10 (VHH)
# VHH: DVQLQASGGGLVQAGGSLRLSCAASARTFYTMGWFRQVLGKDREFVGAIRWGVYATTRYADSVKGRFSISRDDATNTVALQMNSLKPEDTAVYYCAARAGPLGFELSATSSAEYDYWGQGTQVTVSS
# B2: sdAb clone B6 (VHH)
# VHH: EVQLQASGGGLVQAGDSLRLSCVAVSGRTISTFAMGWFRQAPGKEREFVATINWSGSSARYADPVEGRFTISRDDAKNTVYLEMSSLKPGDSAVYYCASGRYLGGITSYSQGDFAPWGQGTQVTVSS
# notes: also called Bt-B6
# B3: sdAb clone A9 (VHH)
# VHH: EVQLQASGGGLVQAGESLRLSCVVSGGAFRIMDMGWFRQVPGKQREVVGVISSGGYTNYADSVKGRFTISRDNAKRTVYLHMNSLKPEDTAVYYCNIIPKSDQGAVNTWGKGTLVSVSS
# Tests used:
# [1] = biological target: SARS-CoV-2 receptor-binding domain (SARS-CoV-2, UniProt P0DTC2 319-541); experiment: direct-binding MagPlex assay, biotinylated sdAb on RBD-coated microspheres
# [2] = biological target: SARS-CoV-2 nucleocapsid protein (recombinant) (SARS-CoV-2, UniProt P0DTC9 1-419); experiment: SPR (ProteOn XPR36), N immobilised on chip, sdAb in flow, 25 C
Binder,binding result [1],Kd [2],koff [2],kon [2]
B1,no binding,14 nM,0.00095 s⁻¹,69000 M⁻¹ s⁻¹
B2,no binding,1.6 nM,0.0003 s⁻¹,190000 M⁻¹ s⁻¹
B3,no binding,–,–,–
